One assay concerns the target T1, PKC-ζ (purified isoform) (Homo sapiens (Human), UniProt Q05513 1-592).
T1 construct: also called PKC-zeta; PKCzeta
T1 sequence: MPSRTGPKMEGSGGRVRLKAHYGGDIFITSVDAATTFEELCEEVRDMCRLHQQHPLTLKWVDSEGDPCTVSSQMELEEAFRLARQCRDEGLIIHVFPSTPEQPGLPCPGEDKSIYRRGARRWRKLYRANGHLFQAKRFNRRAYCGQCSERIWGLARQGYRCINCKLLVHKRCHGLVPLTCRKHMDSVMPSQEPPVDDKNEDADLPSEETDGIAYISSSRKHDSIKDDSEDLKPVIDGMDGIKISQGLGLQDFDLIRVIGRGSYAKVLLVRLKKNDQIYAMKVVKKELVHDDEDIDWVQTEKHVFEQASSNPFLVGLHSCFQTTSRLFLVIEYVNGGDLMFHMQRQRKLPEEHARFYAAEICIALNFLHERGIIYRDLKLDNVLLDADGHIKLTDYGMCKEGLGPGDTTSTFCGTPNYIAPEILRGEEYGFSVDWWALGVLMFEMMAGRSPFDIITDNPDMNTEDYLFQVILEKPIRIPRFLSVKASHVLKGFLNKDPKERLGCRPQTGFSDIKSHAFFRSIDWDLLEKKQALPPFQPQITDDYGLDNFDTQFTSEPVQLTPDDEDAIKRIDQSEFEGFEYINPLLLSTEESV
Nature of the assay: summary grade, purified isoform ELISA.

Assay [1] has as its target T2, PKC-ι (endogenous, human cell extracts) (human, UniProt P41743 2-596).
T2 construct: also called PKC-iota
T2 sequence (looked up): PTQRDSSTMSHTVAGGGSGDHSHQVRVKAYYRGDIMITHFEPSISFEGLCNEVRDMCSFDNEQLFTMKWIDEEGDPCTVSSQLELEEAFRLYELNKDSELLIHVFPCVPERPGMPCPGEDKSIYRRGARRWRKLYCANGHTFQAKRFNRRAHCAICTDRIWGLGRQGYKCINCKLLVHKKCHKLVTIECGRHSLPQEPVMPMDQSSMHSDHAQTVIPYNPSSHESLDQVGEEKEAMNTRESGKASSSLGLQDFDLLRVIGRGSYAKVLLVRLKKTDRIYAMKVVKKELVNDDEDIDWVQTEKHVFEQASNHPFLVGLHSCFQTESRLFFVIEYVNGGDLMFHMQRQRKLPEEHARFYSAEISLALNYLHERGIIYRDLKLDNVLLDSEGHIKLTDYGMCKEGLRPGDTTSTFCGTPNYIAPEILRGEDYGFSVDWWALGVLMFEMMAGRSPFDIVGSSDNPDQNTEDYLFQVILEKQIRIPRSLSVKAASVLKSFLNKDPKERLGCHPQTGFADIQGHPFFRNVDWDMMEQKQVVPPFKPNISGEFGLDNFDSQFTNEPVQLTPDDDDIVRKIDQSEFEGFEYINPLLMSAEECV
The experiment in a line: Western-blot competition on cell extracts against the anti-PKC-ι primary antibody; peptide at 10X and 20X the antibody concentration; band densitometry (lower band = peptide bound). On the procedure: Binding efficiency and specificity of the peptides PRE 2, 3, 4, 5, 6, 7, 8, 9, 10, 11, 12 and 13 (see Table 3) was also tested using cytoplasmic extracts from different cell lines expressing appropriate PKC isoforms as described for Example 1. Briefly, the protein cytoplasmic extracts were separated by electrophoresis and transferred onto nitrocellulose membranes by standard Western blotting procedures. The bands on the Western blots were detected with matching primary antibodies and alkaline phosphatase conjugated secondary antibody. The bands were then scanned and the relative density measurements obtained.
This procedure to assess the binding characteristics of the PREs is based on competition binding of the PRE with the primary anti-isoform PKC specific antibodies. The lower the measured band density, the greater the binding of the PRE to the PKC isoform. The PREs were added at 10 and 20 times (10×, 20×) the primary antibody concentration, according to classical competition between antigenic peptide and primary antibody. The following cell lines (obtained from the ATCC) were used: H661—NCI human lung carcinoma NSCLC; MDAMB231—human highly invasive breast cancer cell line from pleural effusion; LS180—human colon adenocarcinoma; LnCAP—human prostate adenocarcinoma; CCD16Lu—human lung fibroblasts; Du145—human prostate carcinoma brain metastasis, and T24—human bladder carcinoma.

The target in assay [2] is T3, PKC-ε (endogenous, human cell extracts) (human, UniProt Q02156 1-737).
T3 construct: Two bands on the blot, said to be alternate splicing variants; also called PKC-epsilon; PKC-ε Band 1
T3 sequence (looked up): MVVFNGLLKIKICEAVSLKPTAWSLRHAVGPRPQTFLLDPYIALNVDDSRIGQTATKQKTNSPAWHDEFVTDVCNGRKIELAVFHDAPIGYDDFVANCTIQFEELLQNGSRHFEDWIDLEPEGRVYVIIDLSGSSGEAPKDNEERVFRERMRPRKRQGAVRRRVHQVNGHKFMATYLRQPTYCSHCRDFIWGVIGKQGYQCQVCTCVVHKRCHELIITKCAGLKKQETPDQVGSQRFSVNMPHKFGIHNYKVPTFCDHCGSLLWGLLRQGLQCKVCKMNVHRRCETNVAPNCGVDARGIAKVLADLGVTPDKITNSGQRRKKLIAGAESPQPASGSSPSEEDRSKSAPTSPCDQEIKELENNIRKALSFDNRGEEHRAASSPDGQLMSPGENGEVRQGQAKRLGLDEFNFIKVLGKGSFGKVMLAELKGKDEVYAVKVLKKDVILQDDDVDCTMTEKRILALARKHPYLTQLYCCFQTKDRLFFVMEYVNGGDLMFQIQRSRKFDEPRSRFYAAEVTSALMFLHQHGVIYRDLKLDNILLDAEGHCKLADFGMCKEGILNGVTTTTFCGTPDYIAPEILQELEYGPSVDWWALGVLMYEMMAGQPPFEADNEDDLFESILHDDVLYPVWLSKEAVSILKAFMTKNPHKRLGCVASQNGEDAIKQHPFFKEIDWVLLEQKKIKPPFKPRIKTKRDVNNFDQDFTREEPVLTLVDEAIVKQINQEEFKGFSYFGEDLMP
Nature of the assay: Protocol B blot competition, IMR-32 extract, competitor anti-PKC-ε Ab, Band 2; PRE 50 µg. On the procedure:
The ability of the peptides PRE 2 and PRE 3 (see Table 3) to interfere with the binding of a PKC-α-specific polyclonal antibody (Santa Cruz Biotechnology, Inc.) to PKC-α was determined using a modified version of the protocol outlined above in which the test peptide was added directly to the cell extract prior to electrophoresis at a concentration of either 5× or 15× the concentration of the protein applied to each well of the gel for the Western blots (20 μg).
Peptides PRE 2, PRE 3 and PRE 4 (see Table 3) were tested for their ability to interfere with the binding of isoform-specific polyclonal antibodies (Santa Cruz Biotechnology, Inc.) to PKC-ε using the general protocol described in Example 3. Two bands, representing alternate splicing variants of PKC-ε, were identified on the Western blot using this anti-PKC-ε antibody.

B1: PRE 13 (peptide)
peptide: Ac-RDAQNLI-NH2
notes: Synthetic peptide; also called peptide PRE 13; Ac-RDAQNLI-NH2
As for B1, in the assay with PKC-ζ (purified isoform), the binding result was “no binding (tested: 200 µM)”.

B2: PRE 6 (peptide)
peptide: Ac-KDANQLIGISI-NH2
notes: Synthetic peptide; also called peptide PRE 6
Consider B2, for which, in the assay with PKC-ζ (purified isoform), the binding result is given as “no binding (tested: 200 µM)”.

B3: PRE 4 (peptide)
peptide: Ac-KDAQNLIGISI-NH2
notes: Synthetic peptide; also called peptide PRE 4
As for B3, the binding result in assay [1] is recorded as “binds”. In assay [2], the band intensity stood at 0, the “inhibition (%)” value amounted to 100% and the “relative intensity (%)” value was 0%.

B4: PRE 11 (peptide)
peptide: Ac-RDAQNLIGISI-NH2
notes: Synthetic peptide; also called peptide PRE 11
As to B4, the binding result in the assay with PKC-ζ (purified isoform) is listed as “no binding (tested: 200 µM)”.

B5: PRE 3 (peptide)
peptide: Ac-AKGIQEVKGGDAQNLIGISI-NH2
notes: Synthetic peptide; also called peptide PRE 3
With B5, in assay [1], the binding result is reported as “binds”. In assay [2], the band intensity was 0, the “inhibition (%)” value amounted to 100% and the “relative intensity (%)” value turned out to be 0%.
